In one assay the target is DfrB homolog A0A0N7CEH1. Kind of assay: SEC.
A further assay addresses DfrB homolog A0A839U7A6. Kind of assay: SEC.
Another assay concerns A0A839U7A6. The assay is described as follows: initial rate of NADPH and DHF depletion at […] nm, Michaelis-Menten fit. In kind it is biochemical, Phyllobacterium trifolii. The following applies: 50 mM potassium phosphate pH 7, 27 °C.
Assay [1] relates to DfrB-TS (BBD027md-00173_03685). Described as above. In kind it is biochemical. The settings on record: read-out: K M ^DHF; DfrB domain; 50 µM NADPH, 50 mM potassium phosphate pH 7, 27 °C.
Another assay concerns A0A0N7CEH1. The assay is described as above. In kind it is biochemical, Skermania phage SPI1. The following applies: 50 mM potassium phosphate pH 7, 27 °C.
A further assay deals with BBD029md-00326_13692. Described as above. The settings on record: 50 mM potassium phosphate pH 7, 27 °C. It is filed as biochemical.
In another assay the test system is UPI001402A2DF. Described as above. It is filed as biochemical. The following applies: 50 mM potassium phosphate pH 7, 27 °C.
Another assay has as its system A0A5E7Z8W7. The description is as above. In kind it is biochemical, Hoeflea sp. EC-HK425. The settings on record: 50 mM potassium phosphate pH 7, 27 °C.
Assay [2] addresses DfrB1 (type B dihydrofolate reductase 1). Kind of assay: SEC.
In assay [3] the target is DfrB homolog BBD029md-00326_13692. Kind of assay: SEC.
The target of another assay is DfrB homolog E2SFM2. Kind of assay: SEC.
The target in another assay is DfrB homolog A0A1R3X8F5. The assay is described as follows: SEC.
Another assay concerns the target DfrB homolog A0A1M7UVF4. The assay is described as follows: SEC.
In assay [4] the target is DfrB homolog UPI001402A2DF. The assay is described as follows: SEC.
The target of assay [5] is DfrB-TS (BBD027md-00173_03685). Kind of assay: SEC.
For the next assay, the target named is DfrB homolog A0A6J5PTB3. Kind of assay: SEC.
The target in another assay is DfrB homolog A0A5E7Z8W7. The assay is described as follows: SEC.
For a further assay, the target named is DfrB homolog A0A345GTK3. Kind of assay: SEC.
Setting [6] is: read-out: K M ^DHF, 50 µM NADPH.
[7] abbreviates: read-out: K M ^NADPH, 50 µM DHF.

Values joined by “and” are separate entries in the source; they are usually repeats but may differ in a detail not shown here. Equal entries are not always repeated. Where two headings read alike, the source gives them in different places.

DfrB1 (type B dihydrofolate reductase 1), sequence (P00383 whole entry): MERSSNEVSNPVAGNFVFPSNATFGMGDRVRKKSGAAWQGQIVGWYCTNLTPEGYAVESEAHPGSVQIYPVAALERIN

DfrB homolog A0A0N7CEH1 (enzyme) displayed a stoichiometry N in the assay with DfrB homolog A0A0N7CEH1 of 4.

Turning to DfrB homolog A0A839U7A6 (enzyme), the stoichiometry N with DfrB homolog A0A839U7A6 was 4.

As to `Nc1nc2c(c(=O)[nH]1)N=C(CNc1ccc(C(=O)N[C@@H](CCC(=O)O)C(=O)O)cc1)CN2` [DHF], the Km was 44 ± 5 µM with A0A839U7A6 (setting [6]); 28 ± 3 µM in assay [1]; 6 ± 2 µM in the assay with A0A0N7CEH1 (setting [6]); 36 ± 4 µM in the assay with BBD029md-00326_13692 (setting [6]); 130 ± 20 µM in the assay on UPI001402A2DF (setting [6]); 7 ± 4 µM in the assay on A0A5E7Z8W7 (setting [6]).

“DfrB1 (type B dihydrofolate reductase 1) (enzyme)”: in assay [2], the stoichiometry N is 4.

In assay [3], “DfrB homolog BBD029md-00326_13692 (enzyme)” returned a stoichiometry N of 4.

On to DfrB homolog E2SFM2 (natural protein), for which, in the assay with DfrB homolog E2SFM2, the stoichiometry N was found to be 4.

As for “DfrB homolog A0A1R3X8F5 (natural protein)”, in the assay with DfrB homolog A0A1R3X8F5, the stoichiometry N stood at 4.

Consider “DfrB homolog A0A1M7UVF4 (natural protein)”, for which the stoichiometry N with DfrB homolog A0A1M7UVF4 was found to be 2.

In the case of DfrB homolog UPI001402A2DF (enzyme), in assay [4], the stoichiometry N is 4.

For the compound DfrB-TS (BBD027md-00173_03685) (enzyme), the stoichiometry N in assay [5] is 4 and 8.

DfrB homolog A0A6J5PTB3 (enzyme) had a stoichiometry N with DfrB homolog A0A6J5PTB3 of 4.

On to DfrB homolog A0A5E7Z8W7 (enzyme), for which, in the assay with DfrB homolog A0A5E7Z8W7, the stoichiometry N amounted to 4.

For `NC(=O)C1=CN([C@@H]2O[C@H](COP(=O)(O)OP(=O)(O)OC[C@H]3O[C@@H](n4cnc5c(N)ncnc54)[C@H](OP(=O)(O)O)[C@@H]3O)[C@@H](O)[C@H]2O)C=CC1` [NADPH], the Km worked out at 10 ± 5 µM with A0A839U7A6 (setting [7]); 5.7 ± 0.6 µM in the assay with A0A0N7CEH1 (setting [7]); 20 ± 10 µM in the assay on BBD029md-00326_13692 (setting [7]); 11 ± 1 µM in the assay with UPI001402A2DF (setting [7]); 18 ± 2 µM with A0A5E7Z8W7 (setting [7]).

Compound “DfrB homolog A0A345GTK3 (natural protein)” showed a stoichiometry N in the assay with DfrB homolog A0A345GTK3 of 2.

Source of the values: article PMC12486381 (Molecular Biology and Evolution, 2025).
